The target in experiment [1] is T1, non-cleaved H3 tail peptide (H3 18-37), methylated at K27 (not fully specified; methylated K27 (degree of methylation shown only in FIG. 7C); biotinylated for the pull-down).
T1 peptide: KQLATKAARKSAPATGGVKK
Briefly: fluorescence anisotropy. (Polarisation of emitted light reports the rotation of a fluorescent probe.)

The target in experiment [2] is T2, cleaved H3 tail peptide (H3 22-37), methylated at K27 (not fully specified; also: K27 methylated, degree not given here, biotinylated, site not given here).
T2 peptide: TKAARK(Me)SAPATGGVKK
The experiment can be described thus: fluorescence anisotropy.

Where no end group is shown, it is not given here.

B1: chromodomain of mouse CBX7 (other)
chain: MELSAIGEQVFAVESIRKKRVRKGKVEYLVKWKGWPPKYSTWEPEEHILDPRLVMAYEEKEERDRASGYR
Take B1: the Kd (commonly the concentration at which binding is half-saturated) turned out to be 14.5 µM in experiment [1] and 44 µM in experiment [2].
